Assay results published in the supplement of paper PMC10724198.
± gives the standard deviation of the averaged measurements.

System: Saccharomyces cerevisiae
Assay: protein stability index of tFT-peptide fusion (C-terminal peptide) (PSI (0-1 scale)); higher = more stable (slower turnover)
Conditions: temperature: 30 C
Description: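 MPS profiling in S. cerevisiae of the yeast C-terminome library: the last 12 aa of each annotated ORF are fused to the C-terminus of a sfGFP-mCherry timer, after a GGGS linker. Cells are FACS-sorted into 8 mCherry/sfGFP bins and deep-sequenced. PSI runs from 0 (unstable) to 1 (stable); wild type and das1Δ backgrounds, two technical replicates each.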

[1] = genetic background: das1 deletion

| Sequence | protein stability index [1] | protein stability index (genetic background: wild type) |
| --- | --- | --- |
| LRRFIICQLHLI [YBR027C C-terminal 12 aa] | 0.523 ± 0.02 | 0.139 ± 0.0035 |
| LRYYVSKLINFK [YNL324W C-terminal 12 aa] | 0.70435 ± 0.00064 | 0.6889 ± 0.00073 |
| LSDSHYELNAES [PMT5 C-terminal 12 aa] | 0.712 ± 0.033 | 0.706 ± 0.044 |
| LSKDGIYTAIPK [PAU15 C-terminal 12 aa] | 0.685 ± 0.025 | 0.767 ± 0.12 |
| LSRVGELYLSTD [SEC7 C-terminal 12 aa] | 0.683 ± 0.02 | 0.692 ± 0.038 |
| LSVEEDRDVQMT [APC5 C-terminal 12 aa] | 0.684 ± 0.013 | 0.729 ± 0.054 |
| LVDIITGASSLG [ATP3 C-terminal 12 aa] | 0.6894 ± 0.004 | 0.719 ± 0.041 |
| LVVARDMLLASL [SPC25 C-terminal 12 aa] | 0.6474 ± 0.0048 | 0.624 ± 0.024 |
| LVYENVRVPRYL [IFM1 C-terminal 12 aa] | 0.697 ± 0.015 | 0.6639 ± 0.0064 |
| LWNLSDNCKNTV [MMS1 C-terminal 12 aa] | 0.707 ± 0.02 | 0.7014 ± 0.0061 |
| LYAQLRENGLVP [SNU114 C-terminal 12 aa] | 0.695 ± 0.035 | 0.683 ± 0.038 |
| MAEKQIASEFNY [DBP7 C-terminal 12 aa] | 0.721 ± 0.012 | 0.662 ± 0.0067 |
| MAQNYVIDRMGL [MTC1 C-terminal 12 aa] | 0.707 ± 0.027 | 0.68 ± 0.037 |
| MEKSDRYIQETW [TAH18 C-terminal 12 aa] | 0.7032 ± 0.0048 | 0.691 ± 0.009 |
| MERELIKEEYDN [PAA1 C-terminal 12 aa] | 0.702 ± 0.025 | 0.67 ± 0.031 |
| MERLQKGWSLAK [MDY2 C-terminal 12 aa] | 0.71 ± 0.043 | 0.684 ± 0.02 |
| MFGKLGRYLYSH [NSG2 C-terminal 12 aa] | 0.75552 ± 0.00052 | 0.211 ± 0.04 |
| MFNQGKVEEMDF [SML1 C-terminal 12 aa] | 0.7189 ± 0.0047 | 0.692 ± 0.017 |
| MGIRLRYNVEPK [RPA135 C-terminal 12 aa] | 0.735 ± 0.041 | 0.663 ± 0.014 |
| MKFNVISFLFHK [NAM2 C-terminal 12 aa] | 0.688 ± 0.011 | 0.615 ± 0.011 |
| MKQLEKAGVRFE [FMP33 C-terminal 12 aa] | 0.6871 ± 0.0014 | 0.686 ± 0.014 |

| Sequence | protein stability index [1] | protein stability index (genetic background: wild type) |
| --- | --- | --- |
| MLGVGSLLFLAF [ROT1 C-terminal 12 aa] | 0.698 ± 0.03 | 0.691 ± 0.026 |
| MLYTSYQSIFGV [AVT4 C-terminal 12 aa] | 0.707 ± 0.015 | 0.706 ± 0.0086 |
| MNSAMNVQPTGF [CHC1 C-terminal 12 aa] | 0.6951 ± 0.0016 | 0.662 ± 0.033 |
| MTQWLEISILMN [YCL001W-A C-terminal 12 aa] | 0.544 ± 0.05 | 0.319 ± 0.034 |
| MVGVLFFWVWIT [BET1 C-terminal 12 aa] | 0.201 ± 0.0064 | 0.123 ± 0.018 |
| NAPRFGVEYQMT [PHO89 C-terminal 12 aa] | 0.72259 ± 0.00055 | 0.67 ± 0.017 |
| NCANCVYFSSRG [YDL221W C-terminal 12 aa] | 0.7169 ± 0.0029 | 0.716 ± 0.043 |
| NDAQKRAIDENF [SIS1 C-terminal 12 aa] | 0.687 ± 0.016 | 0.683 ± 0.0076 |
| NDQNKNKQNAKR [YIL156W-A C-terminal 12 aa] | 0.7078 ± 0.0055 | 0.639 ± 0.011 |
| NDTIFKLKVFKL [ILS1 C-terminal 12 aa] | 0.7346 ± 0.001 | 0.759 ± 0.099 |
| NEDDYLAVKYVL [FES1 C-terminal 12 aa] | 0.687 ± 0.018 | 0.696 ± 0.044 |
| NEGSEEEPEIDQ [BDP1 C-terminal 12 aa] | 0.6878 ± 0.0019 | 0.702 ± 0.037 |
| NEKGNDDSDAKK [ILM1 C-terminal 12 aa] | 0.695 ± 0.041 | 0.685 ± 0.029 |
| NEKRNEPKPSTN [YTA12 C-terminal 12 aa] | 0.6938 ± 0.0025 | 0.656 ± 0.017 |
| NEMRERLRALQN [VPS24 C-terminal 12 aa] | 0.668 ± 0.011 | 0.685 ± 0.054 |
| NENKKANGNNCC [YPT31 C-terminal 12 aa] | 0.705 ± 0.017 | 0.652 ± 0.036 |
| NHFHYDCVYRYC [YOR333C C-terminal 12 aa] | 0.6939 ± 0.0038 | 0.404 ± 0.03 |
| NIKSSTLPGLSI [PFS2 C-terminal 12 aa] | 0.694 ± 0.02 | 0.664 ± 0.029 |
| NKYMNEMLEYMQ [NUF2 C-terminal 12 aa] | 0.715 ± 0.0072 | 0.719 ± 0.085 |
| NLAGRKNSRDNE [LOT5 C-terminal 12 aa] | 0.681 ± 0.017 | 0.6772 ± 0.0027 |
| NLDNLFMASSLI [AIM6 C-terminal 12 aa] | 0.7128 ± 0.0018 | 0.658 ± 0.033 |

| Sequence | protein stability index [1] | protein stability index (genetic background: wild type) |
| --- | --- | --- |
| NMGGWVLGGNAR [SND1 C-terminal 12 aa] | 0.721 ± 0.023 | 0.6926 ± 0.0057 |
| NNGSSNNNTQNT [SNF5 C-terminal 12 aa] | 0.67 ± 0.014 | 0.673 ± 0.022 |
| NNLHSYEKRLHN [YAR075W C-terminal 12 aa] | 0.69 ± 0.019 | 0.7 ± 0.015 |
| NNQPHYRDQLLQ [REI1 C-terminal 12 aa] | 0.6976 ± 0.0028 | 0.706 ± 0.048 |
| NNVDVSWVDKLV [STB5 C-terminal 12 aa] | 0.712 ± 0.013 | 0.714 ± 0.046 |
| NPAARLDEDLYE [FRS2 C-terminal 12 aa] | 0.662 ± 0.053 | 0.707 ± 0.022 |
| NQKNEDLSDIKL [UTP30 C-terminal 12 aa] | 0.658 ± 0.019 | 0.755 ± 0.13 |
| NQTSFSRDRLRR [RRD1 C-terminal 12 aa] | 0.702 ± 0.013 | 0.722 ± 0.066 |
| NRAKGKVVVKMK [YIM1 C-terminal 12 aa] | 0.69 ± 0.022 | 0.6976 ± 0.0037 |
| NRRNNGYHPYNR [HRP1 C-terminal 12 aa] | 0.688 ± 0.019 | 0.6645 ± 0.0011 |
| NSARKRVFGTVI [DIP2 C-terminal 12 aa] | 0.6997 ± 0.0036 | 0.655 ± 0.0069 |
| NSISPPPRKGFI [YGL006W-A C-terminal 12 aa] | 0.7177 ± 0.005 | 0.714 ± 0.055 |
| NTFTEHNSNIYY [SPT10 C-terminal 12 aa] | 0.704 ± 0.021 | 0.706 ± 0.029 |
| NTNELTDEHRWI [PHO2 C-terminal 12 aa] | 0.6977 ± 0.0017 | 0.668 ± 0.017 |
| NVFNPDQPRMGP [YLR154W-A C-terminal 12 aa] | 0.711 ± 0.017 | 0.711 ± 0.018 |
| NVGYMHTQPQQR [TCO89 C-terminal 12 aa] | 0.71 ± 0.0077 | 0.67 ± 0.016 |
| NVIRVWQVMTAN [ASC1 C-terminal 12 aa] | 0.576 ± 0.0091 | 0.272 ± 0.016 |
| NVLTVVNPDEAD [SLG1 C-terminal 12 aa] | 0.692 ± 0.027 | 0.6841 ± 0.0015 |
| NWSNQQINVQSS [PHM8 C-terminal 12 aa] | 0.7172 ± 0.0032 | 0.674 ± 0.018 |
| NYEITPYENVHV [TOS2 C-terminal 12 aa] | 0.682 ± 0.026 | 0.7131 ± 0.0041 |
| NYLFKLMGPSSD [VTC2 C-terminal 12 aa] | 0.687 ± 0.032 | 0.655 ± 0.008 |

| Sequence | protein stability index [1] | protein stability index (genetic background: wild type) |
| --- | --- | --- |
| PAAVFAETLKHD [RPL4B C-terminal 12 aa] | 0.686 ± 0.016 | 0.705 ± 0.011 |
| PDDQIHSILLSL [MET13 C-terminal 12 aa] | 0.708 ± 0.019 | 0.714 ± 0.018 |
| PGGGGGSPLIFL [YHR165W-A C-terminal 12 aa] | 0.7299 ± 0.0012 | 0.728 ± 0.02 |
| PGTRGRVASKFL [MIM1 C-terminal 12 aa] | 0.7098 ± 0.0037 | 0.705 ± 0.0099 |
| PISHVNNNDTHA [SLM3 C-terminal 12 aa] | 0.727 ± 0.014 | 0.688 ± 0.0079 |
| PKYKEEESRSAV [RSN1 C-terminal 12 aa] | 0.678 ± 0.035 | 0.668 ± 0.019 |
| PLTNNIRPISIM [YJR115W C-terminal 12 aa] | 0.6893 ± 0.0007 | 0.6548 ± 0.005 |
| PMIWHLVKKQWK [TOM5 C-terminal 12 aa] | 0.686 ± 0.011 | 0.682 ± 0.052 |
| PPNSTSTNPYSS [SKG3 C-terminal 12 aa] | 0.729 ± 0.015 | 0.7181 ± 0.0014 |
| PPPQESTEKEEK [MRP13 C-terminal 12 aa] | 0.709 ± 0.031 | 0.668 ± 0.0098 |
| PPSPQEELLIEL [VPS27 C-terminal 12 aa] | 0.721 ± 0.017 | 0.7051 ± 0.0024 |
| PRERLLSEYCSS [MET8 C-terminal 12 aa] | 0.71885 ± 0.00032 | 0.7199 ± 0.0033 |
| PSNASNTTTRRP [YKR045C C-terminal 12 aa] | 0.703 ± 0.032 | 0.6901 ± 0.0053 |
| PSYPSEKISYSK [ADO1 C-terminal 12 aa] | 0.7017 ± 0.0027 | 0.726 ± 0.065 |
| PTIVGGLYYQRP [AAR2 C-terminal 12 aa] | 0.7 ± 0.0021 | 0.696 ± 0.012 |
| QAKKSNSCCIIM [YKT6 C-terminal 12 aa] | 0.732 ± 0.034 | 0.766 ± 0.06 |
| QAKLTAATNAKQ [PDC1 C-terminal 12 aa] | 0.698 ± 0.018 | 0.716 ± 0.035 |
| QEGGDNTKIKQN [RNP1 C-terminal 12 aa] | 0.731 ± 0.023 | 0.638 ± 0.024 |
| QFFFTSRQKNYV [ERP4 C-terminal 12 aa] | 0.707 ± 0.014 | 0.654 ± 0.01 |
